According to the DeepSol protein solubility set:

Assay: soluble on expression in E. coli; label from the status in PepcDB or PDB records

Sequence | soluble on expression in E. coli
MSLYNDSLFNAFARSFEARSQHDMSMAEYLESCRSDPMKYANAAERLLAAIGEPQTIDTAKDPRLGRIFLNRTIRTYPAFAGFYGMEETIERIVGFFRHAAQGLEERKQILYLLGPVGGGKSSLAERLKSLMEVHPIYVLKAGDELSPVFESPLSLFDPDQLGPMLEEKYGIPRRRLTGLMSPWCYKRLEAFGGDISQFRVAKIQPSRLRQIAIAKTEPGDENNQDISSLVGKVDIRKLETYAQNDPDAYSYSGGLNRANQGILEFVEMFKAPIKMLHPLLTATQEGNYIGTENIGAIPFTGIILAHSNEAEWASFKANKNNEAFIDRICVIKVPYVLRVTEEQKIYEKLIQGSELASAPCAPSTLETMARFSVMSRLRKHENSTVFGKMRVYDGESLKESDPKARSVQEYRDAAGVDEGMDGVSTRFAFKILAATFNHDPQEVAADAVHLMYALEQSIKREQLPEEVEKRYLEFIKADLAPRYAEFIGNEIQKAYLESYSDYGQNLFDRYVDYADAWIEDQDFKDPDTGQLLDRELLNQELTKIEKPAGIANPKDFRNEVVKFSLRSRAQNGGKNPTWTSYEKIRDVIEKRIFSQVEDLLPVISFGSKKDGETEKKHGEFVARMVERGYTERQVRRLVEWYMRVKQAGEGHHHHHH | soluble
MSLYPEKRDGFSRTGKFEVEGRTVQTPAILEVGEIPEWDFGLAPTSLKFISEELYSRLRPINEEVEILTSLHLLSPRQLVQVFEDLSKEGVSPKPLYAASSALPSNVSLLIYLGADLVDNVLAIAKAYSGIYFLGEVEVEISKLRRLPCNCIHCRNRVVDEVENLLETTAKHNTEMLRMEVEKCRRLILNEELRNYVEGKVKLNPEFTAALRLSDSLRNHSTFPRFRKSRCNFSALESSSRFEVRYFFERALECYKPFSDTVLLLPCTARKPYLTSRTHRALRSKVKVNVNEIIISSPLVVPREFELLYPAVNYDTPVTGHWSEEEVSFVAGWLKRFIEKGGFRKVVAHVTGGYRKVVERVEDEVEAEVVYTAEKDVLSDESIERLKQEIESKGKVDLYRRILEHMLSYQFGITWSGKVAGRYPELELLEGKKRLARVDRIYGMLDIYEKIAAYLLEKNIYTVEIGDFEVKGTIFAGGVLRADEKIRPNDVVVFHNSRIFGVGLAAMSGKEMAGSEKGIAINVKRKFSEGHHHHHH | soluble
MSLYSGYGYFYRGKFMKPFESHNKQLKILRRRGMEVPSSAKRDLENENYYNIINGYKDLFLELDVNGNFLVPDKYKQGTHFKEVFSLYKLDRKFRNVLLEYLLVFETHIKSRISYYFSEKYREPHSYLYFKNYSSDTSKTDSIVKMVATFSSVMSNRKNKPLKHYINTHNGVPLWILVNYLTLGNVSKMYSNLDDDLRLEVAKDYKRKLERDYKTRVQITPSDVDSILQQAHMFRNVCAHEERLYDYKIDRAKSRANIFANYNKIYDKEYVPTMNGSYVFDLLISLCLFLNKHDYIKLVKNMDKLISNYSHSFYTITIDDLYTKMNFPDQTKILDMLEGHHHHHH | soluble
MSMIYKNIVCPVCGAACDDIQVEFGDGKIEARNACKMGNAKFQEVVSSHRLRQPLIKVNGRLTAAAWDEALERAADILVSAKRPLLFMGSETSCEAHEVGLKIGEYLGALVDSNATICHGPTAMGIQESGKVGATEGQKKNRGDLIVYWGTNPLESMPRQMSRYGVFPRGYWTKRGRFDRTVITVDPRKTPTTEASDLHVQLKPGSDYELISALLTLLHGKTPHPSVEEITGVPIPVMEEMLDMMKNCNFGAISVGLGLSSSIGKHRNAEIAMNLVKELNNYAKFTLGALRGHCNVAGFNQVASYMYGYPFGLDFMRGHPRYNPGEYTTVDVLREKDVDAAFVMCADLVCHIPADCASYLAEIPMVCLDIAPCPSTAASDVVLPGVIDAMECDGTFYRLDDVAVHFEPFTSSPFEFTKSNEDTLKQLFEKIKARK | not soluble
MSMPATLTKTTKLATSLIDEYALLGWRAMLTEVNLSPKPGLVDRINCGAHKDMALEDFHRSALAIQGWLPRFIEFGACSAEMAPEAVLHGLRPIGMACEGDMFRATAGVNTHKGSIFSLGLLCAAIGRLLQLNQLLTPTTVCSTAASFCRGLTDRELRTNNSQLTAGQRLYQQLGLTGARGEAEAGYPLVINHALPHYLTLLDQGLDPELALLDTLLLLMAINGDTNVASRGGEGGLRWLQREAQTLLQKGGIRTPADLDYLRQFDRECIERNLSPGGSADLLILTWFLAQI | soluble
